The test deals with His6-REV7_(R124A), recombinant (human, UniProt Q9UI95 1-211, R124A). Description: ITC. (Isothermal titration calorimetry measures the heat released or taken up as one component is titrated into another.)
Chain of His6-REV7_(R124A), recombinant (Q9UI95 whole entry R124A): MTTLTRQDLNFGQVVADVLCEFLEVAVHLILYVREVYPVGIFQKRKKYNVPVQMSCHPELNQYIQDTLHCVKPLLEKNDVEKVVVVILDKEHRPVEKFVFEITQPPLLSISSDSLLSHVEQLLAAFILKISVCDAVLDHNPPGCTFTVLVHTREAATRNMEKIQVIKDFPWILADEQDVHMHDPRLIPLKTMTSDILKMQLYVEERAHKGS

B1: RINN1_(28–83), recombinant (domain or fragment, human, UniProt Q6ZNX1 28-83, looked up)
chain: QDFPTRPLSRFIPWFPYDGSKLPLRPKRSPPVISEEAAEDVKQYLTISEHDAKSHS
As usually defined, the Kd is the concentration at which binding is half-saturated. For the molecule B1, the dissociation constant Kd was found to be 15.8 nM.

(Values after article PMC8108093 (Cell, 2018).)
